In patent publication US20190382474A1 (SURFACE ONCOLOGY, published 2019):

Tests used:
recombinant mouse IL-27 [1] = biological target: T1, recombinant mouse IL-27 (mouse, UniProt O35228 19-228; Q8K3I6 29-234, limits assumed); assay: cell-based or functional assay
T1 sequence (looked up) 1: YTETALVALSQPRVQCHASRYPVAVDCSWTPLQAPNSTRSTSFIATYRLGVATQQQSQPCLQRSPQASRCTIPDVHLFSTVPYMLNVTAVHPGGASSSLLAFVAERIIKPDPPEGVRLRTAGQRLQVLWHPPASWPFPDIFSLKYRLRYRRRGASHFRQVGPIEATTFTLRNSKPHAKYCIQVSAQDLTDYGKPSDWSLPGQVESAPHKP
T1 sequence (looked up) 2: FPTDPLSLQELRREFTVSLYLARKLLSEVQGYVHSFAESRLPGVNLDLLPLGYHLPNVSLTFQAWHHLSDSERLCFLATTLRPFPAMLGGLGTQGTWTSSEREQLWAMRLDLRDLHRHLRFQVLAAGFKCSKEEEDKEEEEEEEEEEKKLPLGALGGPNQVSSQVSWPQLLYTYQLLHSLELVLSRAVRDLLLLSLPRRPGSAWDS

recombinant rat IL-27 [2] = biological target: T2, recombinant rat IL-27 (rat, UniProt D3ZPW3 29-234; M0RD76 19-228); assay: cell-based or functional assay
T2 sequence (alpha): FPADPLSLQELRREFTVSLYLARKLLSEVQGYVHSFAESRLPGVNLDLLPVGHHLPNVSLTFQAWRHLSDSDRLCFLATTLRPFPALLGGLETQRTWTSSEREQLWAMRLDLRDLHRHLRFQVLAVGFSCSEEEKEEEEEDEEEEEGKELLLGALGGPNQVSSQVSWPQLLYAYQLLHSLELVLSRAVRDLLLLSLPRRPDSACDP
T2 sequence (beta): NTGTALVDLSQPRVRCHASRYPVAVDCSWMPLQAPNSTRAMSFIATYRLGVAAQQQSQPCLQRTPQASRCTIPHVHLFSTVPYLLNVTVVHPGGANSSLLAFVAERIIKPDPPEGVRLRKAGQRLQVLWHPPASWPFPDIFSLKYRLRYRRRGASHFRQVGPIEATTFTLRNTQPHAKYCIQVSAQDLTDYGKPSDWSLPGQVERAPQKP

[3] = biological target: T3, recombinant cynomolgus monkey IL-27 (cynomolgus monkey, UniProt A0A2K5WPB7 36-244; A0A2K5UBM6 29-244); assay: cell-based or functional assay
T3 sequence 1: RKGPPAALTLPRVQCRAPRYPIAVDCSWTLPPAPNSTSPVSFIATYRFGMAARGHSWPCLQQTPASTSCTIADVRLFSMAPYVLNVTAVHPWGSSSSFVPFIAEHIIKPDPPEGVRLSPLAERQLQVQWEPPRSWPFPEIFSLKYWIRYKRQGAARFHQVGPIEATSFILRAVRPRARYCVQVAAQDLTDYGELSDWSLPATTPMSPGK
T3 sequence 2: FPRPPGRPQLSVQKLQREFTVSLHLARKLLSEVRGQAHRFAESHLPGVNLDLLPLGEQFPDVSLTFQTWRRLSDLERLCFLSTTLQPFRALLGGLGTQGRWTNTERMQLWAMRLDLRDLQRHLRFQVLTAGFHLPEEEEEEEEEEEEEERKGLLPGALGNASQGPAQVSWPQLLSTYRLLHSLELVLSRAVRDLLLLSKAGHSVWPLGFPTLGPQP

recombinant human IL-27 [4] = biological target: T4, recombinant human IL-27 (human, UniProt Q14213 21-229; Q8NEV9 29-243); assay: cell-based or functional assay
T4 sequence 1: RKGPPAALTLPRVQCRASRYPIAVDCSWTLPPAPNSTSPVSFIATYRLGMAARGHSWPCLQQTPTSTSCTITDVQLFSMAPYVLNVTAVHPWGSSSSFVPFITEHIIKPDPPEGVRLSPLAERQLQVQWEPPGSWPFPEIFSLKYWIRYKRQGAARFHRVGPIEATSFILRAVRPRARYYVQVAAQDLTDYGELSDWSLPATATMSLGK
T4 sequence 2: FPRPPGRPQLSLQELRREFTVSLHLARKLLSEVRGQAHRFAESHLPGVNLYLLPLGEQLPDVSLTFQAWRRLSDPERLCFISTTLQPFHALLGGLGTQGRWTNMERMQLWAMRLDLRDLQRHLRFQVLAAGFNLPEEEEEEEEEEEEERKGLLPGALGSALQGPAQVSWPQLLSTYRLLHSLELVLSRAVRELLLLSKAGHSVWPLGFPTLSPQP

recombinant human IL-27 [5] = biological target: T4, recombinant human IL-27; assay: SPR (BIACORE 2000) as the paragraph says; values in FIG. 9
recombinant human IL-27 [6] = biological target: T4, recombinant human IL-27; assay: column 'Affinity hIL-27 (M)', property (i); method not given, paragraph 885 names SPR (BIACORE 2000)
recombinant human IL-27 [7] = biological target: T4, recombinant human IL-27; assay: binding kinetics, SRF388 at 1 ug/mL, IL-27 as analyte at 0 to 5.0 ug/mL (instrument not named)
Description: The association and dissociation of recombinant human IL-27 at concentrations ranging from 0 to 5.0 μg/mL with an SRF388 concentration of 1 μg/mL were determined.

EBI3 subunit of IL-27 = biological target: T5, EBI3 subunit of IL-27 (Homo sapiens (Human), UniProt Q14213 21-229, limits assumed); assay: biochemical affinity and specificity studies
T5 construct: the reagent used in the specificity studies is not described
T5 sequence: T4 sequence 1

p28 subunit of IL-27 = biological target: T6, p28 subunit of IL-27 (Homo sapiens (Human), UniProt Q8NEV9 29-243, limits assumed); assay: biochemical affinity and specificity studies
T6 construct: the reagent used in the specificity studies is not described; also called IL-27p28
T6 sequence: T4 sequence 2

recombinant mouse IL-27 [8] = biological target: T1, recombinant mouse IL-27; assay: binding kinetics, SRF388 with IL-27 as analyte (instrument not named)
recombinant rat IL-27 [9] = biological target: T2, recombinant rat IL-27; assay: as above
[10] = biological target: T3, recombinant cynomolgus monkey IL-27; assay: as above
recombinant human IL-27 [11] = biological target: T4, recombinant human IL-27; assay: cell-based or functional assay; remark: listed apart in the source
recombinant mouse IL-27 [12] = biological target: T1, recombinant mouse IL-27; assay: column 'Affinity mIL-27 (M)'; method not given

B1: SRF388 (antibody, V domains shown)
VH: EVQLVESGGGLVKPGGSLRLSCAASGFTFRSYGMNWVRQAPGKGLEWVSGISSSGSYIYYADSVKGRFTISRDNAKNSLYLQMNSLRAEDTAVYYCARDGGRTSYTATAHNWFDPWGQGTLVTVSS
VL: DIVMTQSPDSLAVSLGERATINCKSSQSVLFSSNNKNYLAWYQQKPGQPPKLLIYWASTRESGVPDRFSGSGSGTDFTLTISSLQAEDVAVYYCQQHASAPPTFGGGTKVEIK
notes: also called SRF388-A; SRF388-B
B1 was tested, and the “Average IC50, pSTAT1 in peripheral blood T cells, mouse whole blood” value (recombinant mouse IL-27 [1]) was 1720 ng/mL, the “Average IC50, pSTAT1 in peripheral blood T cells, rat whole blood” value (recombinant rat IL-27 [2]) was 273 ng/mL and the “Average IC50, pSTAT1 in peripheral blood T cells, cynomolgus monkey whole blood” value [3] was 118 ng/mL. For the same binder, the “Average IC50, pSTAT1 in peripheral blood T cells, human whole blood” value (recombinant human IL-27 [4]) was 78.4 ng/mL, the Kd (recombinant human IL-27 [5]) was ≤ 15 nM and the Kd (recombinant human IL-27 [6]) was 0.0013 nM. It also gave a Kd (recombinant human IL-27 [7]) of 0.00386 nM, a koff (recombinant human IL-27 [7]) of 1.97e-06 s⁻¹ and a kon (recombinant human IL-27 [7]) of 510000 M⁻¹ s⁻¹. The binding result (EBI3 subunit of IL-27) was “no binding”, the binding result (p28 subunit of IL-27) was “binds” and the Kd (recombinant mouse IL-27 [8]) was 4.43 nM. The koff (recombinant mouse IL-27 [8]) was 0.000244 s⁻¹, the kon (recombinant mouse IL-27 [8]) was 55000 M⁻¹ s⁻¹ and the Kd (recombinant rat IL-27 [9]) was 0.0809 nM. The koff (recombinant rat IL-27 [9]) was 0.000189 s⁻¹, the kon (recombinant rat IL-27 [9]) was 2.34e+06 M⁻¹ s⁻¹ and the Kd [10] was 0.0374 nM. The koff [10] was 1.19e-05 s⁻¹, the kon [10] was 318000 M⁻¹ s⁻¹ and the “IC50 of inhibition of phosphorylation of STAT1 in HUT-78 cells” value (recombinant human IL-27 [11]) was 0.095 µg/mL. The “IC50 of inhibition of phosphorylation of STAT1 in U937 cells” value (recombinant human IL-27 [11]) was 0.096 µg/mL, the “IC50 of inhibition of phosphorylation of STAT1 in pooled human PBMCs” value (recombinant human IL-27 [11]) was 0.0583 µg/mL and the Kd (recombinant mouse IL-27 [12]) was 0.594 nM.
